Laboratory results as given in patent US12180485B2, “Repressible control of gene expression” (TRUSTEES OF BOSTON UNIVERSITY, priority 2020, dated 2024).

Test system: mCherry expression in HEK293 FT cells
Assay: Inducible split RfxCas13d (GIB, RAP, ABA, Dano, GRZ CID domains; NES/NLS variants) mCherry knockdown, leakiness and inducibility
Format: cell-based
Conditions: inducible polypeptide systems of Tables 18-22
Excerpt: FIG. 6A-6C is a series of schematics and graphs showing that split RfxCas13d's reconstituted and functioned to knockdown mCherry expression in HEK293 FT cells FIG. 6A is a schematic showing split sites selected throughout RfxCas13d sequence. FIG. 6B is a bar graph showing mCherry expression under 4 conditions for gibberellin-inducible, rapalog-inducible, and abscisic acid-inducible inducible split Cas13d designs. In FIG. 6B and FIG. 6C, the left-right order of the bars for each split site is the same as the left-right order of the legend for each bar graph.
FIG. 7A-7E is a series of schematics and graphs showing a functional and inducible split Cas13d design. FIG. 7A is a bar graph showing additional split sites selected in RfxCas13d and tested with GIB CID domains. […] In FIG. 7A and FIG. 7C, the left-right order of the bars for each split site is the same as the left-right order of the legend. FIG. 7B is a schematic showing the design to compartmentalize splits. Compartmentalizing moieties facilitates the reduction of leakiness. […] FIG. 7D is a schematic showing the experiment flow for testing reversibility of the inducible split Cas13d's.
FIG. 8A-8B is a series of schematics and graphs showing that split RfxCas13d's reconstituted upon drug-induced dimerization and knocked down mCherry expression in HEK293 FT cells. FIG. 8A is a bar graph showing quantification of system performance. The left-right order of the bars for each split site is the same as the top-down order of the legend. […] System performance in leakiness score (left axis) and induced activity (right axis) by GIB, RAP, ABA, and Dano-inducible split Cas13d designs.
FIG. 10A-10B is a series of schematics and graphs showing performance optimization through separating split Cas13d moieties in different cellular compartments. […] The left-right order of the bars for each bar graph is the same as the top-down order of the legend.
FIG. 11 is a series of schematics and graphs showing the testing of reversed orientation (dark grey dots) of CID domains with respect to split Cas13d pieces against original orientations (light grey dots) designed for GIB, ABA, Dano, and GRZ inducible systems.

Molecule	performance in the tested conditions
SEQ ID NO: 792: inducible system polypeptide, probably Table 20 (GID-GAI) (protein) MAPKKKRKVGIHGVPAAKRDHHHHHHQDKKTMMMNEEDDGNGMDELLAVLGYKVRSSEMADVAQKLEQLEVMMSNVQEDDLSQLATETVHYNPAELYTWLDSMLTDLNSGGSGSGSSGGSGTGPVQQDMLGLKETLEKRYFGESADGNDNICIQVIHNILDIEKILAEYITNAAYAVNNISGLDKDIIGFGKFSTVYTYDEFKDPEHHRAAFNNNDKLINAIKAQYDEFDNFLDNPRLGYFGQAFFSKEGRNYIINYGNECYDILALLSGLRHWVVHNNEEESRISRTWLYNLDKNLDNEYISTLNYLYDRITNELTNSFSKNSAANVNYIAETLGINPAEFAEQYFRFSIMKEQKNLGFNITKLREVMLDRKDMSEIRKNHKVFDSIRTKVYTMMDFVIYRYYIEEDAKVAAANKSLPDNEKSLSEKDIFVINLRGSFNDDQKDALYYDEANRIWRKLENIMHNIKEFRGNKTREYKKKDAPRLPRILPAGRDVSAFSKLMYALTMFLDGKEINDLLTTLINKFDNIQSFLKVMPLIGVNAKFVEEYAFFKDSAKIADELRLIKSFARMGEPIADARRAMYIDAIRILGTNLSYDELKALADTFSLDENGNKLKKGKHGMRNFIINNVISNKRFHYLIRYGDPAHLHEIAKNEAVVKFVLGRIADIQKKQGQNGKNQIDRYYETCIGKDKGKSVSEKVDALTKIITGMNYDQFDKKRSVIEDTGRENAEREKFKKIISLYLTVIYHILKNIVNINARYVIGFHCVERDAQLYKEKGYDINLKKLEEKGFSSVTKLCAGIDETAPDKRKDVEKEMAERAKESIDSLESANPKLYANYIKYSDEKKAEEFTRQINREKAKTALNAYLRNTKWNVIIREDLLRIDNKTCTLFRNKAVHLEVARYVHAYINDIAEVNSYFQLYHYIMQRIIMNERYEKSSGKVSEYFDAVNDEKKYNDRLLKLLCVPFGYCIPRFKNLSIEALFDRNEAAKFDKEKKKVSGNSGSGPKKKRKV	highest performance
SEQ ID NO: 796: inducible system polypeptide, probably Table 20 (GID-GAI) (protein) MAPKKKRKVGIHGVPAAKRDHHHHHHQDKKTMMMNEEDDGNGMDELLAVLGYKVRSSEMADVAQKLEQLEVMMSNVQEDDLSQLATETVHYNPAELYTWLDSMLTDLNSGGSGSGSSGGSGTSYDELKALADTFSLDENGNKLKKGKHGMRNFIINNVISNKRFHYLIRYGDPAHLHEIAKNEAVVKFVLGRIADIQKKQGQNGKNQIDRYYETCIGKDKGKSVSEKVDALTKIITGMNYDQFDKKRSVIEDTGRENAEREKFKKIISLYLTVIYHILKNIVNINARYVIGFHCVERDAQLYKEKGYDINLKKLEEKGFSSVTKLCAGIDETAPDKRKDVEKEMAERAKESIDSLESANPKLYANYIKYSDEKKAEEFTRQINREKAKTALNAYLRNTKWNVIIREDLLRIDNKTCTLFRNKAVHLEVARYVHAYINDIAEVNSYFQLYHYIMQRIIMNERYEKSSGKVSEYFDAVNDEKKYNDRLLKLLCVPFGYCIPRFKNLSIEALFDRNEAAKFDKEKKKVSGNSGSGPKKKRKV	highest performance
SEQ ID NO: 769: inducible system polypeptide, probably Table 20 (GID-GAI) (protein) MIEKKKSFAKGMGVKSTLVSGSKVYMTTFAEGSDARLEKIVEGDSIRSVNEGEAFSAEMADKNAGYKIGNAKFSHPKGYAVVANNPLYTGPVQQDMLGLKETLEKRYFGESADGNDNICIQVIHNILDIEKILAEYITNAAYAVNNISGLDKDIIGFGKFSTVYTYDEFKDPEHHRAAFNNNDKLINAIKAQYDEFDNFLDNPRLGYFGQAFFSKEGRNYIINYGNECYDILALLSGLRHWVVHNNEEESRISRTWLYNLDKNLSGGSGSGSSGGSGTMAASDEVNLIESRTVVPLNTWVLISNFKVAYNILRRPDGTFNRHLAEYLDRKVTANANPVDGVFSFDVLIDRRINLLSRVYRPAYADQEQPPSILDLEKPVDGDIVPVILFFHGGSFAHSSANSAIYDTLCRRLVGLCKCVVVSVNYRRAPENPYPCAYDDGWIALNWVNSRSWLKSKKDSKVHIFLAGDSSGGNIAHNVALRAGESGIDVLGNILLNPMFGGNERTESEKSLDGKYFVTVRDRDWYWKAFLPEGEDREHPACNPFSPRGKSLEGVSFPKSLVVVAGLDLIRDWQLAYAEGLKKAGQEVKLMHLEKATVGFYLLPNNNHFHNVMDEISAFVNAECPKKKRKV	highest performance
SEQ ID NO: 770: inducible system polypeptide, probably Table 20 (GID-GAI) (protein) MKRDHHHHHHQDKKTMMMNEEDDGNGMDELLAVLGYKVRSSEMADVAQKLEQLEVMMSNVQEDDLSQLATETVHYNPAELYTWLDSMLTDLNSGGSGSGSSGGSGTDNEYISTLNYLYDRITNELTNSFSKNSAANVNYIAETLGINPAEFAEQYFRFSIMKEQKNLGFNITKLREVMLDRKDMSEIRKNHKVFDSIRTKVYTMMDFVIYRYYIEEDAKVAAANKSLPDNEKSLSEKDIFVINLRGSFNDDQKDALYYDEANRIWRKLENIMHNIKEFRGNKTREYKKKDAPRLPRILPAGRDVSAFSKLMYALTMFLDGKEINDLLTTLINKFDNIQSFLKVMPLIGVNAKFVEEYAFFKDSAKIADELRLIKSFARMGEPIADARRAMYIDAIRILGTNLSYDELKALADTFSLDENGNKLKKGKHGMRNFIINNVISNKRFHYLIRYGDPAHLHEIAKNEAVVKFVLGRIADIQKKQGQNGKNQIDRYYETCIGKDKGKSVSEKVDALTKIITGMNYDQFDKKRSVIEDTGRENAEREKFKKIISLYLTVIYHILKNIVNINARYVIGFHCVERDAQLYKEKGYDINLKKLEEKGFSSVTKLCAGIDETAPDKRKDVEKEMAERAKESIDSLESANPKLYANYIKYSDEKKAEEFTRQINREKAKTALNAYLRNTKWNVIIREDLLRIDNKTCTLFRNKAVHLEVARYVHAYINDIAEVNSYFQLYHYIMQRIIMNERYEKSSGKVSEYFDAVNDEKKYNDRLLKLLCVPFGYCIPRFKNLSIEALFDRNEAAKFDKEKKKVSGNSGSGPKKKRKV	highest performance
SEQ ID NO: 797: inducible system polypeptide, probably Table 20 (GID-GAI) (protein) MLDLASLILIEKKKSFAKGMGVKSTLVSGSKVYMTTFAEGSDARLEKIVEGDSIRSVNEGEAFSAEMADKNAGYKIGNAKFSHPKGYAVVANNPLYTGPVQQDMLGLKETLEKRYFGESADGNDNICIQVIHNILDIEKILAEYITNAAYAVNNISGLDKDIIGFGKFSTVYTYDEFKDPEHHRAAFNNNDKLINAIKAQYDEFDNFLDNPRLGYFGQAFFSKEGRNYIINYGNECYDILALLSGLRHWVVHNNEEESRISRTWLYNLDKNLDNEYISTLNYLYDRITNELTNSFSKNSAANVNYIAETLGINPAEFAEQYFRFSIMKEQKNLGFNITKLREVMLDRKDMSEIRKNHKVFDSIRTKVYTMMDFVIYRYYIEEDAKVAAANKSLPDNEKSLSEKDIFVINLRGSFNDDQKDALYYDEANRIWRKLENIMHNIKEFRGNKTREYKKKDAPRLPRILPAGRDVSAFSKLMYALTMFLDGKEINDLLTTLINKFDNIQSFLKVMPLIGVNAKFVEEYAFFKDSAKIADELRLIKSFARMGEPIADARRAMYIDAIRILGTNLSGGSGSGSSGGSGTMAASDEVNLIESRTVVPLNTWVLISNFKVAYNILRRPDGTFNRHLAEYLDRKVTANANPVDGVFSFDVLIDRRINLLSRVYRPAYADQEQPPSILDLEKPVDGDIVPVILFFHGGSFAHSSANSAIYDTLCRRLVGLCKCVVVSVNYRRAPENPYPCAYDDGWIALNWVNSRSWLKSKKDSKVHIFLAGDSSGGNIAHNVALRAGESGIDVLGNILLNPMFGGNERTESEKSLDGKYFVTVRDRDWYWKAFLPEGEDREHPACNPFSPRGKSLEGVSFPKSLVVVAGLDLIRDWQLAYAEGLKKAGQEVKLMHLEKATVGFYLLPNNNHFHNVMDEISAFVNAECLDLASLIL	highest performance
SEQ ID NO: 793: inducible system polypeptide, probably Table 20 (GID-GAI) (protein) MLDLASLILIEKKKSFAKGMGVKSTLVSGSKVYMTTFAEGSDARLEKIVEGDSIRSVNEGEAFSAEMADKNAGYKIGNAKFSHPKGYAVVANNPLYTSGGSGSGSSGGSGTMAASDEVNLIESRTVVPLNTWVLISNFKVAYNILRRPDGTFNRHLAEYLDRKVTANANPVDGVFSFDVLIDRRINLLSRVYRPAYADQEQPPSILDLEKPVDGDIVPVILFFHGGSFAHSSANSAIYDTLCRRLVGLCKCVVVSVNYRRAPENPYPCAYDDGWIALNWVNSRSWLKSKKDSKVHIFLAGDSSGGNIAHNVALRAGESGIDVLGNILLNPMFGGNERTESEKSLDGKYFVTVRDRDWYWKAFLPEGEDREHPACNPFSPRGKSLEGVSFPKSLVVVAGLDLIRDWQLAYAEGLKKAGQEVKLMHLEKATVGFYLLPNNNHFHNVMDEISAFVNAECLDLASLIL	highest performance
